Results published in US10809222B2, “Opioid detection based on high quality graphene transistor arrays and a synthetic mu receptor” (priority 2013, dated 2020).

What was measured:
mu receptor protein = mu receptor protein (Homo sapiens, UniProt P35372); assay: GFET sensor response (Dirac voltage shift) of mu receptor protein-functionalized graphene transistors; conditions: 10 micrograms/mL, negative control of specificity, 15-25 devices
Experimental: First, the graphene was functionalized through the use of a diazonium salt. The carboxylate group was then activated by EDC and stabilized with NHS. Mu receptor protein displaced the NHS to form an amide bond.
The graphene transistor was functionalized by incubation at 55° C. in a water solution of carboxylated diazonium salt (2.0 mg/mL in DI water). Carboxylic acid groups from the diazonium functionalization were activated and stabilized with 1-ethyl-3-[3-dimethylaminopropyl]carbodiimide hydrochloride/sulfo-Nhydroxysuccinimide (EDC/NHS) at an EDC concentration of 9 mg/15 mL MES buffer and NHS concentration of 20 mg/15 mL MES buffer. NHS molecules were displaced by Mu receptor proteins (3 micrograms/mL) in buffer (40 microM NaPi/260 microM NaCl/0.00004% SDS/10 microM 2-ME/pH 7.0), forming a covalent amide bond between the protein and the graphene. The devices were then electrically characterized and then their sensitivity to opioid exposure was measured.
The source-drain current value is at a minimum at the gate voltage value at which conductance is at a minimum. The increase in Dirac voltage was defined as the sensing response (change in signal, i.e. electronic characteristic) for this ligand. […] The inset is a magnified view of this shift in the Dirac voltage.
Each concentration was tested against 15-30 devices. […]

mu-receptor protein = assay: Raman spectroscopy optical readout of ligand binding on mu-receptor-protein-functionalized GFET; design: species or system human
From the text: Raman spectroscopy of the graphene layer in a functionalized GFET was used as an optical readout method to detect ligand binding. […]
A similar shift is seen in the 2D peak in FIG. 8c. No shifts were seen after exposure to pure buffer as a negative control, in FIGS. 8d and 8e.

[1] = Secondary structure content by circular dichroism; assay type: physicochemical
From the text: The CD spectra indicated predominantly helical structures with a helical secondary structure content of ˜48% (estimations based on the molar ellipticity over the range 205 to 260 nm). The comparison of the helical content with that of the native human MUR expressed in yeast system in the presence of high concentration of detergent (0.1% SDS) is presented in Table 1.

[2] = Thermostability by circular dichroism; conditions: 5 mM sodium phosphate; for melting point (CD thermostability): 0.01% SDS, pH=7.0
Experimental: The secondary structure of the water-soluble variant was determined through circular dichroism (CD). Circular dichroism (CD) spectra were recorded by using CD Spectrometer (Chirascan, AppliedPhotophysics Limited, Leatherhead, United Kingdom) with a scan speed of 1 nm/s and 1 mm path length. Corresponding blanks were used for calibration for each assay and subtracted from raw data. Two data sets were recorded and averaged to increase the signal-to-noise ratio. The CDNN CD spectra deconvolution software was utilized to determine the secondary structure content of the proteins. […] Absorbance was maintained lower than 1.0 to ensure sufficient light transmission. The temperature-dependence curve was plotted using GraphPad Prism® (version 5, GraphPad Software, Inc. La Jolla).

[3] = Effects of denaturant (urea) and reducing agent (2-ME) by CD and intrinsic tryptophan fluorescence; assay type: physicochemical; conditions: normalized to no denaturant
Experimental: CD and intrinsic tryptophan fluorescence were used to probe disulfide bond formation in the water-soluble variant. […] Even in 8 M urea, the protein retains some helical structure (Table 2). Upon addition of 2-ME, both the molar ellipticity and fluorescence further decreased, becoming more pronounced at the higher concentration of the reducing agent (200 mM). Thus the presence of an intramolecular disulfide bond is corroborated in the case of wsMUR-TM.

[4] = system: human μ opioid receptor expressed in HEK293 cells; assay: Competitive TR-FRET (HTRF) binding competition assay with native MUR and naltrexone-derived fluorescent antagonist; conditions: methodology described for FIG. 16
From the text: FIG. 16. […] Data is used to calculate HTRF ratios, and represent the mean±standard error of mean of quadruplicates. ΔF is used for the comparison of different runs of the same assay which reflects the signal to background of the assay. ΔF=[(Ratiosample−Ratiobackgroud)/Ratiobackgroud](%).
A recently developed methodology which uses a fluorescently labeled ligand and the native MUR was used to investigate the ligand-binding capabilities of the water-soluble receptors.

[5] = pH 7.0 + 0.1% SDS, expressed in yeast system

Sequence of mu receptor protein (P35372 whole entry, looked up): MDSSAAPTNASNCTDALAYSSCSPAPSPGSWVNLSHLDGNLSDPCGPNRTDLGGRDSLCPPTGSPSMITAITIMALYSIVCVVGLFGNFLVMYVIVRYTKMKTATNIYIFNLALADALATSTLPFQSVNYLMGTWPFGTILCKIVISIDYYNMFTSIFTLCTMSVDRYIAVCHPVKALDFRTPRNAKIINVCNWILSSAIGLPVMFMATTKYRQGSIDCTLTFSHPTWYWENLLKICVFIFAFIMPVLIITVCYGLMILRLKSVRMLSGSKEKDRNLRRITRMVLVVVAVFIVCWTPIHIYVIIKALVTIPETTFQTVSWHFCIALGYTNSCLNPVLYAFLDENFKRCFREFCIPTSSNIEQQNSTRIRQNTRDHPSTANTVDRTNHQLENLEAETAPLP

With CCOC(=O)c1ncn2c1CN(C)C(=O)c1cc(F)ccc1-2 [Flumazenil] the “sensor response (Dirac voltage shift)” value (mu receptor protein) was −0.2±0.4 V.

With O=C1CC[C@@]2(O)[C@H]3Cc4ccc(O)c5c4[C@@]2(CCN3CC2CC2)[C@H]1O5 [naltrexone] the “Average 2D peak position after analyte” value (mu-receptor protein; 10 ng/mL) was 2683.19 ± 0.20, the “Average G peak position after analyte” value (mu-receptor protein; 10 ng/mL) was 1591.61 ± 0.13 and the “Average 2D peak position after analyte” value (mu-receptor protein; 10 micrograms/mL) was 2685.83 ± 0.26. For the same molecule, the “Average G peak position after analyte” value (mu-receptor protein; 10 micrograms/mL) was 1594.39 ± 0.15.

For “Native MUR: native human μ receptor expressed in yeast system, in 0.1% SDS [reference compound]”, the “Helix content (CD 205-260 nm)” value [1, 5] was 40.6%, the “Others content (CD 205-260 nm)” value [1, 5] was 40.5% and the “Turn content (CD 205-260 nm)” value [1, 5] was 18.9%.

B1: wsMUR-TM: transmembrane-only water-soluble human mu receptor variant (protein)
chain: SMITAIKIHEEYKKVCEEGKKGNKLVMEVIVRYTKMKTATNIYIFNLAKADALAESTLPFQSVNKLMGTWPFGTILCKKVISIDYYNMFTSIFTLCTMSVDRYIAVCHPVKALDFRTPRNAKEENEKNWKLSSEIGKPVEKKATTKYRQGSIDCTLTFSHPTWYWEDKLKDEVFKKAFEEPVKKIKECYGLMILRLKSVRMLSGSKEKDRNLRRITRMVLVVVEVFIKCWTEIHKYVKEGKLVTIPETTFQTVSWHECIAKGYKNSCENPKLYEELDENFKRCFREFC
For B1, the “temperature at which ellipticity (222 nm) starts to be lost significantly” value ([2]; pH=7.0, 10 to 90° C.) was ~62 °C, the “melting point (CD thermostability)” value ([2]; absence of cholesterol) was 82.9 °C and the “melting point (CD thermostability)” value ([2]; presence of cholesterol) was 89.3 °C. For the same molecule, the “Helix content (CD 205-260 nm)” value ([1]; pH 7.0 in NaHPO4) was 48.0%, the “Others content (CD 205-260 nm)” value ([1]; pH 7.0 in NaHPO4) was 37.4% and the “Turn content (CD 205-260 nm)” value ([1]; pH 7.0 in NaHPO4) was 14.6%. For the same molecule, the “Fluorescence Peak Intensity (%; 300-350 nm)” value ([3]; Urea (8M) 2-ME (25 mM)) was 23.9%, the “Molar Ellipticity (%; 222 nm)” value ([3]; Urea (8M) 2-ME (25 mM)) was 25.1% and the “Fluorescence Peak Intensity (%; 300-350 nm)” value ([3]; Urea (8M) 2-ME (200 mM)) was 4.5%. The “Molar Ellipticity (%; 222 nm)” value ([3]; Urea (8M) 2-ME (200 mM)) was 0.0%, the “Fluorescence Peak Intensity (%; 300-350 nm)” value ([3]; Urea (8M)) was 28.4% and the “Molar Ellipticity (%; 222 nm)” value ([3]; Urea (8M)) was 40.0%.

B2: wsMUR-TM+7mut: second wsMUR recombinant protein (protein)
chain: SMITAIKILEEYKKVCEEGRKGNKLVMEVIVRYTKMKTATNIYIFNLAKADALAESTLPFQSVNKLMGTWPFGTILCKKVISIDYYNMFTSIFTLCTMSVDRYIAVCHPVKALDFRTPRNAKEHNEKNWKLSSEIGKPVEKRATTKYRQGSIDCTLTFSHPTWYWEDKLKDTVFKKAFEEPVKVIKECYGLMILRLKSVRMLSGSKEKDRNLRRITRMVLVVVEVFIKCWTEIHKYVKEGKL
In the case of B2, the “binding activity / affinity with naltrexone” value [4] is reported as “binding activity was also observed”.
